Patent US20190382481A1 (Janssen / Centocor, published 2019)
Positions count from the first letter of the chain named. Names may count otherwise. Blank lines part the entries; values can stand above or below the binder they belong to.

Experiments:
Human CD33-V-HSA [1] = biological target: T1, Human CD33-V-HSA (human); test: SPRi off-rate screen, domain constructs
T1 construct: V domain of human CD33 fused to HSA (C58S) and six-histidine tag; also called C33W3; huCD33-V-HSA

Human CD33-C2-HSA [2] = biological target: T2, Human CD33-C2-HSA (human); test: SPRi off-rate screen, domain constructs
T2 construct: C2 domain of human CD33 fused to HSA (C58S) and six-histidine tag; also called C33W4; huCD33-C2-HSA

Human CD33-V-HSA [3] = biological target: T3, Human CD33-V-HSA (human); test: IBIS SPRi off-rate screen
T3 construct: V domain of human CD33 fused to HSA; also called C33W3; huCD33-V-HSA

Human CD33-C2-HSA [4] = biological target: T4, Human CD33-C2-HSA (human); test: IBIS SPRi off-rate screen
T4 construct: C2 domain of human CD33 fused to HSA; also called C33W4; huCD33-C2-HSA

human CD33 = human CD33 (human, UniProt P20138 18-364); test: cell-based or functional assay
human CD33, sequence (P20138 18-364 limits assumed): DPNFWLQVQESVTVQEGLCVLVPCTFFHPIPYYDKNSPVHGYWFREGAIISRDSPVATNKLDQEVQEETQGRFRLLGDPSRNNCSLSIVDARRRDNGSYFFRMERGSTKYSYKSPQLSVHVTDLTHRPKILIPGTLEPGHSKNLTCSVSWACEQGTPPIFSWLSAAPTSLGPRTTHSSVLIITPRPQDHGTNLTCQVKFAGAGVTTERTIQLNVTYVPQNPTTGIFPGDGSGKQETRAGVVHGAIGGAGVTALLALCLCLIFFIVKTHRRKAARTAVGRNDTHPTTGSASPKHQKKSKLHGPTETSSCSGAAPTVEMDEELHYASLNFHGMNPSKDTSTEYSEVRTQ

[5] = biological target: T5, human recombinant (r)CD33 (human, UniProt P20138 18-259); test: method not stated
T5 construct: also called human rCD33
T5 sequence (P20138 18-259 limits assumed): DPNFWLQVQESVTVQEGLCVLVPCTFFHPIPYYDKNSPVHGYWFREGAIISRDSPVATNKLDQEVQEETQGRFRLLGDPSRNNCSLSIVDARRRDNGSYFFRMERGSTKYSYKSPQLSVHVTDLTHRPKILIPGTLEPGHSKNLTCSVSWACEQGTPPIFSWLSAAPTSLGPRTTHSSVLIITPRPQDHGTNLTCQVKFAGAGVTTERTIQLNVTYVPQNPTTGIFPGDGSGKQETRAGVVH

[6] = biological target: cynomologous (cyno) rCD33 (cyno); test: method not stated
cynomologous (cyno) rCD33 (cyno), sequence (chain, as listed by the source limits assumed): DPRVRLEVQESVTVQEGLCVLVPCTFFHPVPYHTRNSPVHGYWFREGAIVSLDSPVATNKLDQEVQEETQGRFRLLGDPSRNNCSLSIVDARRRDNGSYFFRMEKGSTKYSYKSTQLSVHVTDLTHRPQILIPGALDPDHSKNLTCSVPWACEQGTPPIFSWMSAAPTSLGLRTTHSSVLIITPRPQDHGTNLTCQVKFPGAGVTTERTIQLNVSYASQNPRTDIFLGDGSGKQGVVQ

human rCD3e = biological target: T6, human rCD3e (human, UniProt P07766 23-126); test: method not stated
T6 construct: also called human recombinant CD3 epsilon
T6 sequence (P07766 23-126 limits assumed): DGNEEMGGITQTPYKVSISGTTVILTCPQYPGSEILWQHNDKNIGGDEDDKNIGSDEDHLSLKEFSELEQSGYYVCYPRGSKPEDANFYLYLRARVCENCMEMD

cyno monkey rCD3e = biological target: T7, cyno monkey rCD3e (cyno monkey, UniProt Q95LI5 22-117, limits assumed); test: method not stated
T7 construct: also called cyno recombinant CD3 epsilon
T7 sequence (looked up): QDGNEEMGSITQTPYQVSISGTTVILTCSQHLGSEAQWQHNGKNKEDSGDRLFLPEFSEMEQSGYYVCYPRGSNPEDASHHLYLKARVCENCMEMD

[7] = biological target: CD33 on human CD33 expressing AML cell lines and primary human cells (endogenous) (human, UniProt P20138 18-364); test: cell-based or functional assay
CD33 on human CD33 expressing AML cell lines and primary human cells (endogenous), sequence (P20138 18-364 limits assumed): as the sequence (P20138 18-364 limits assumed) above

[8] = biological target: T8, Cyno CD33 full length (over-expressed on transduced HEK293F / HEK 293T cells) (cyno); test: flow cytometry, HEK293F cells expressing cyno CD33
T8 construct: also called cyCD33; cyno CD33 expressing cells
T8 sequence (chain, as listed by the source limits assumed): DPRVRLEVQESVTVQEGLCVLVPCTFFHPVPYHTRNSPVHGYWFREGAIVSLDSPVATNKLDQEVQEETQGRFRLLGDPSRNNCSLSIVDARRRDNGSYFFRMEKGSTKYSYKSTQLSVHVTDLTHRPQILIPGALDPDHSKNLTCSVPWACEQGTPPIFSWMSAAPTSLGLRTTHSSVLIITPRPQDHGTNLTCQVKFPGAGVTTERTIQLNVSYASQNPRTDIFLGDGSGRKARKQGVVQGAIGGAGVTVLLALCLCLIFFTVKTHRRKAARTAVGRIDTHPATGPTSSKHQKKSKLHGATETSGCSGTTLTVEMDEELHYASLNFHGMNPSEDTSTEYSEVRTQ
Method: (§1) The purified antibodies were assessed for binding to stably transfected HEK293F cells expressing human CD33 or cyno CD33 (generation described above) along with the parental HEK293F as negative control. Cells were harvested from tissue culture flasks using non-enzymatic dissociation buffer (Thermo Scientific). The flasks were rinsed twice with PBS and dissociation buffer was added to the flask, and the flask was incubated for 10 minutes at 37° C. until the cells became non-adherent. The cells were centrifuged at 300 g for 5 minutes and resuspended at 1.0×10⁶ cells/ml in staining buffer (Becton Dickinson; Franklin Lakes, N.J.). 50,000 cells/well of each cell type was plated in 50 μl of staining buffer in round bottom plates (Becton Dickinson). 50 μl of 2× concentration test mAb or isotype control was added at 3 dilutions and zero (120 nM, 12 nM, and 1.2 nM and 0 nM), and the resultant solution was incubated 30 min at 4° C. […] 30 ul running buffer containing Sytox Green live/dead dye (ThermoFisher) was added to all wells with cells and the plates were read on an iQue IntelliCyt flow cytometer. […] Antibody binding was assessed by the mean fluorescence intensity in the AF647 channel. […]

[9] = biological target: T9, Human CD33 full length (over-expressed on transduced HEK293F cells) (human, UniProt P20138 18-364); test: flow cytometry, HEK293F cells expressing human CD33
T9 construct: also called huCD33; human CD33 expressing cells
T9 sequence (P20138 18-364 limits assumed): as the sequence (P20138 18-364 limits assumed) above
Method: as §1

binding result (Human CD33-V-HSA [3]): no binding
B2: C33B778 (antibody, human IgG4 S228P, lambda, F234A L235A)
heavy: not shown
light: SYELTQPPSVSVSPGQTASITCSGDKLGDKYACWYQQKPGQSPVLVIYQDGKRPSGIPERFSGSNFGNKATLTISGTQAMDEADYYCQAWDRNTVVFGGGTKLTVLGQPKAAPSVTLFPPSSEELQANKATLVCLISDFYPGAVTVAWKADSSPVKAGVETTTPSKQSNNKYAASSYLSLTPEQWKSHRSYSCQVTHEGSTVEKTVAPTECS
notes: huIgG4 PAA; HC C33H66, LC C33L60 (same V region as C33B73); also called C33F78

binding result (Human CD33-V-HSA [1]): no binding
binding result (Human CD33-C2-HSA [2]): no binding
B5: C33B792 (antibody, human IgG4 S228P, lambda, F234A L235A)
heavy: not shown
light: B2 light with D29N, C33S, G51T, F61V, F66S, K69T, Y86H, R92S, N93S
notes: huIgG4 PAA; OMNIRat campaign; also called C33H87/C33L35

binding result (Human CD33-C2-HSA [4]): no binding
B9: C33B836 (antibody, human IgG4 S228P, lambda, F234A L235A)
heavy: not shown
light: QSALTQPASVSGSPGQSITISCTGTSSDVGDYNYVSWYQQHPGKVPKLMIYDVSNRPSGVSNRFSGSMSGNTASLTISGLQAEDEADYYCSSYSSSSALEVFGGGTKLTVLGQPKAAPSVTLFPPSSEELQANKATLVCLISDFYPGAVTVAWKADSSPVKAGVETTTPSKQSNNKYAASSYLSLTPEQWKSHRSYSCQVTHEGSTVEKTVAPTECS
notes: huIgG4 PAA; HC C33H80, LC C33L73 (same V region as C33B48); also called C33F53

Kd [5]: 0.00089 nM
Kd [6]: 0.363 nM
Kd (human rCD3e): 151 nM
Kd (cyno monkey rCD3e): 43.8 nM
T cell activation (CD25) in human whole blood with Kasumi-1, median EC50 [7]: 0.085 nM
T cell activation (CD25) in human whole blood with MOLM-13, median EC50 [7]: 0.037 nM
T cell activation (CD25) with KG-1 target cells, median EC50 [7]: 0.0664 nM
T cell activation (CD25) with Kasumi-1 target cells, median EC50 [7]: 0.0432 nM
T cell activation (CD25) with MOLM-13 target cells, median EC50 [7]: 0.0283 nM
T cell activation (CD25) with OCI-AML3 target cells, median EC50 [7]: 0.05 nM
B10: C3CB189 (bispecific antibody, human IgG4 S228P, kappa, lambda, F234A L235A)
heavy 1: not shown
light 1: not shown
heavy 2: QVQLQQSGPRLVRPSQTLSLTCAISGDSVFNNNAAWSWIRQSPSRGLEWLGRTYYRSKWLYDYAVSVKSRITVNPDTSRNQFTLQLNSVTPEDTALYYCARGYSSSFDYWGQGTLVTVSSASTKGPSVFPLAPCSRSTSESTAALGCLVKDYFPEPVTVSWNSGALTSGVHTFPAVLQSSGLYSLSSVVTVPSSSLGTKTYTCNVDHKPSNTKVDKRVESKYGPPCPPCPAPEAAGGPSVFLFPPKPKDTLMISRTPEVTCVVVDVSQEDPEVQFNWYVDGVEVHNAKTKPREEQFNSTYRVVSVLTVLHQDWLNGKEYKCKVSNKGLPSSIEKTISKAKGQPREPQVYTLPPSQEEMTKNQVSLTCLVKGFYPSDIAVEWESNGQPENNYKTTPPVLDSDGSFLLYSKLTVDKSRWQEGNVFSCSVMHEALHNHYTQKSLSLSLGK
light 2: QSALTQPASVSGSPGQSITISCTGTSSNIGTYKFVSWYQQHPDKAPKVLLYEVSKRPSGVSSRFSGSKSGNTASLTISGLQAEDQADYHCVSYAGSGTLLFGGGTKLTVLGQPKAAPSVTLFPPSSEELQANKATLVCLISDFYPGAVTVAWKADSSPVKAGVETTTPSKQSNNKYAASSYLSLTPEQWKSHRSYSCQVTHEGSTVEKTVAPTECS
notes: Fully human IgG4-PAA bispecific made by Fab-arm exchange; CD33 arm C33B904 (C33H252/C33L118), CD3 arm CD3B376 (CD3H219/CD3L150; F405L, R409K); also called C33B904 × CD3B376
T cell-mediated cytotoxicity of KG-1, median EC50, 6 donors, 48 h [7]: 0.168 nM
T cell-mediated cytotoxicity of Kasumi-1, median EC50, 6 donors, 48 h [7]: 0.05 nM
T cell-mediated cytotoxicity of Kasumi-1 spiked in human whole blood, median EC50, 48 h [7]: 0.124 nM
T cell-mediated cytotoxicity of MOLM-13, median EC50, 6 donors, 48 h [7]: 0.131 nM
T cell-mediated cytotoxicity of MOLM-13 spiked in human whole blood, median EC50, 48 h [7]: 0.111 nM
T cell-mediated cytotoxicity of OCI-AML3, median EC50, 6 donors, 48 h [7]: 0.183 nM
ex vivo cytotoxicity of CD33+ blasts in AML patient whole blood, median EC50 [7]: 0.365 nM

binding result [8]: no binding
binding result [9]: no binding
B12: C33B909 (antibody, V domains shown)
VH: EVQLVESGGGLVQPGRSLRLSCVASGFTFDDYAIHWVRQAPGKGLEWVSGLSWNGGNIGYADSVKGRFTISRDNAKNSLYLQMNSLKTEDTAFYYCTKDTPYGDYFDYWGQGTLVTVSS
VL: DIQMTQSPSSVWASVGDRVTITCRASQGISSWLAWYQQQPGKAPNLLIYRSSSLQSGVPSRFSGSGSGTDFTLTISSLQPEDFATYYCQQDNSFPYTFGQGTKLEIKR
notes: OMNIMouse campaign; also called C33H249/C33L115

More lines, now with the values behind:

B1: C33B782 (antibody, human IgG4 S228P, lambda, F234A L235A)
heavy: not shown
light: B2 light with D25N, D29A, Y31F, C33S, G51N, F66S, K69T, M80V, R92S, N93S
notes: huIgG4 PAA; OMNIRat campaign; also called C33H72/C33L40
binding result (Human CD33-V-HSA [1]): no binding
binding result (Human CD33-C2-HSA [2]): no binding

B3: C33B782 (antibody, human IgG4 S228P, lambda, F234A L235A)
heavy: not shown
light: B2 light with D25N, D29A, Y31F, C33S, G51N, F66S, K69T, M80V, R92S, N93S
notes: huIgG4 PAA; HC C33H72, LC C33L40 (same V region as C33B77); also called C33F82
binding result (Human CD33-V-HSA [3]): no binding
binding result (Human CD33-C2-HSA [4]): no binding

B4: C33B778 (antibody, human IgG4 S228P, lambda, F234A L235A)
heavy: not shown
light: B2 light
notes: huIgG4 PAA; OMNIRat campaign; also called C33H66/C33L60
binding result (Human CD33-V-HSA [1]): no binding

B6: C33B792 (antibody, human IgG4 S228P, lambda, F234A L235A)
heavy: not shown
light: B2 light with D29N, C33S, G51T, F61V, F66S, K69T, Y86H, R92S, N93S
notes: huIgG4 PAA; HC C33H87, LC C33L35 (same V region as C33B87); also called C33F92
binding result (Human CD33-V-HSA [3]): no binding
binding result (Human CD33-C2-HSA [4]): no binding

B7: C33B836 (antibody, human IgG4 S228P, lambda, F234A L235A)
heavy: not shown
light: B9 light
EC50 (nM), CD33 internalization assay (Protein A-MMAF cell viability, MOLM13) (human CD33): 0.04 nM

B8: C33B836 (antibody, human IgG4 S228P, lambda, F234A L235A)
heavy: not shown
light: B9 light
notes: huIgG4 PAA; OMNIRat campaign; also called C33H80/C33L73
binding result (Human CD33-C2-HSA [2]): no binding

B11: C33B937 (antibody, human IgG4 S228P, lambda, F234A L235A, V domains shown)
VH: QVQLVESGGGVVQPGRSLRLSCVASGFTFSSYGMHWVRQAPGKGLEWVAVISYDGSNKYYADSVKGRFTISRDNSKNTLYLQMNSLRAEGTAVYYCAKDFRSFDWLPPDSASYHGMDVWGQGTTVTVSS
VL: SYELTQPPSVSVSPGQTASITCSGDKLGDKYASWYQQKPGQSPVLVIYQDGKRPSGIPERFSGSNFGNKATLTISGTQAMDEADYYCQAWDRNTVVFGGGTKLTVLG
EC50 (nM), CD33 internalization assay (Protein A-MMAF cell viability, MOLM13) (human CD33): 1.92 nM
